pKd: −log10 of the molar value.
Tests used:
Assay in all cases: EMSA
Details in all cases: EMSA: 20 mM HEPES pH 7.4, 330 mM KCl, 10 mM MgCl2, 0.1 mM EDTA, 0.1 mg/ml heparin, 0.01% IGEPAL CA630, room temperature, 1 h; SELEX: 50 mM Tris-HCl pH 8.0 …
His-SLM-2 = target: T1, His-SLM-2 (UniProt Q9R226)
T1 sequence: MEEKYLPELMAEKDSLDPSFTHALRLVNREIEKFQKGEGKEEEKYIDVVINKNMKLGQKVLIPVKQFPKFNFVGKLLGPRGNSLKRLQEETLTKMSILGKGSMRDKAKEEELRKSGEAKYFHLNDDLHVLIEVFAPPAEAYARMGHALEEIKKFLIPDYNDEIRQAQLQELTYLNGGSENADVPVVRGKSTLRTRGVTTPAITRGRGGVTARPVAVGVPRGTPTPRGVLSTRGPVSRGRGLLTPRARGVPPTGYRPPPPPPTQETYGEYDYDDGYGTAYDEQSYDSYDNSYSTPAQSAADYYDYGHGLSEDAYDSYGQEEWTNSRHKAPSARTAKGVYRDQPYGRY

GST-QKI-5 = system: GST-QKI-5
MBP-GLD-1 (C. elegans) = system: MBP-GLD-1 (C. elegans)

Row | Substance | pKd (His-SLM-2) | other results
1 | AUCGUAAUAAACAAUUAAUUUGGAUUUCUUGAGCUUAUGGCUUUUAAUAUGGG [SRE-7m2] | 7.84 | –
2 | GGUUCUACCCCAAUUUUCACUAUCCUAUUAACAGUUCC [SRE-4m2] | < 6.00 | –
3 | GGUUCUAUAAAAAUUUUCACUAUCCUACCCCCAGUUCC [SRE-4m3] | < 6.00 | –
4 | GGUUAAUUUGGAUUUCUUGAGCUUAUGGCUUUUAAUAUGG [SRE-7d9] | 7.65 | –
5 | GGUUAAUCUGGAUUUCUUGAGCUUAUGGCUUUUCCUAUGG [SRE-7d9m3] | 6.40 | –
6 | AUCGUGGUGGGCGGUUAAUUUGGAUUUCUUGAGCUUAUGGCUUUUAAUAUGGG [SRE-7wt] | 7.52 | –
7 | UAAUUUGGAUUUCUUGAGCUUAUGGCU [SRE-7d7] | < 6.00 | –
8 | UUUGGAUUUCUUGAGCUUAUGGCUUUU [SRE-7d4] | < 6.00 | –
9 | QRE-2:wt | – | pKd (GST-QKI-5): 6.92
10 | AUCGUGGUGGGCGGUUAAUUUGGAUUUCUUGAGCUUAUGGCUCGACGCAUGGG [SRE-7m3] | < 6.00 | –
11 | TGE-wt | – | pKd (MBP-GLD-1 (C. elegans)): 6.98; pKd (GST-QKI-5): 6.52
12 | GUGGGCGGUUAAUUUGGAUUUCUUGAG [SRE-7d2] | < 6.00 | –
13 | GGUUCCUUUGGAUUUCUUGAGCUUAUGGCUUUUAAUAUGG [SRE-7d9m2] | 6.40 | –
14 | AUCGUGGUGGGCGGUUAAUUUGGAUUU [SRE-7d1] | < 6.00 | –
15 | GGUUAAUUUGGAUUUCUUGAGCUUAUGGCUUUU [SRE-7d8] | < 6.00 | –
16 | GGUUAAUUUGGAUUUCUUGAGCUUAUG [SRE-7d3] | < 6.00 | –
17 | AUCUUGUUCUCCGCUUAAUUUGGAUUUCUUGAGCUUAUGGCUUUUAAUAUGGG [SRE-7m1] | 7.34 | –
18 | GGUUCCCCUGGAUUUCUUGAGCUUAUGGCUUUCCCCAUGG [SRE-7d9m1] | < 6.00 | –
19 | UUUCUUGAGCUUAUGGCUUUUAAUAUGG [SRE-7d5] | < 6.00 | –
20 | GGUUCUAUACCCCCUUUCACUAUCCUAUUAACAGUUCC [SRE-4m4] | < 6.00 | –
21 | GGUUCUAUAAAAAUUUUCACUAUCCUAUUAACAGUUCC [SRE-4wt] | 7.79 | –
22 | GGAUUUCUUGAGCUUAUGGCUUUUAAU [SRE-7d6] | < 6.00 | –
23 | GGUUCUACCCCAAUUUUCACUAUCCUACCCCCAGUUCC [SRE-4m1] | < 6.00 | –

Reference: article PMC2697983
